Patent US20210032312A1 (Janssen / Centocor, published 2021)
Where a chain is given by its changes, count along the chain named.

B1: P283FR9P1366_D8 (designed binder)
chain: LPAPKNLVVSRVTEDSARLSWTAPDAAFDSFEIAYPEIPIAGEAIVLTVPGSERSYDLTGLKPGTEYFVIIYGVKGGDWSDPLSAIFTT
notes: FN3 domain
B2: P283FR9P1366_H9 (designed binder)
chain: B1 chain with I38W, I40V, A41N, F68W, I70V, Y72W, D78V, W79N, D81Y
notes: FN3 domain
B3: P283GR7P1367_H2 (designed binder)
chain: B1 chain with E32D, I38W, I40T, A41D, I70V, D78G, W79R, D81Y
notes: FN3 domain
B4: P283FR9P1366_H3 (designed binder)
chain: B1 chain with E32A, I38W, A41K, F68W, I70V, D78V, W79F, D81E
notes: FN3 domain
B5: P283FR9P1366_E11 (designed binder)
chain: B1 chain with E32D, I38W, I40V, A41P, F68W, Y72K, D78N, W79I, D81W
notes: FN3 domain
B6: P283GR7P1367_H9 (designed binder)
chain: B1 chain with E32D, I38W, I40T, A41D, I70V, D78G, W79R, D81A
notes: FN3 domain
B7: P283GR7P1367_C9 (designed binder)
chain: B1 chain with E32L, A34G, I38W, I40L, A41G, F68W, D78E, W79Y
notes: FN3 domain
B8: P283FR9P1366_H7 (designed binder)
chain: B1 chain with E32Q, I38Y, I40A, A41L, Y72A, D78I, W79Q, D81W
notes: FN3 domain
B9: P283FR9P1366_G8 (designed binder)
chain: B1 chain with E32D, I38L, A41G, I70V, D78I, W79H, D81A
notes: FN3 domain
B10: P283GR7P1367_F5 (designed binder)
chain: B1 chain with E32D, I38W, I40T, A41D, D78A, W79L, D81R
notes: FN3 domain
B11: P283FR9P1366_H6 (designed binder)
chain: B1 chain with E32D, I38W, I40V, A41T, F68W, Y72F, D78E, W79R, D81W
notes: FN3 domain
B12: P283GR7P1367_A11 (designed binder)
chain: B1 chain with E32D, I38W, I40T, A41D, D78S, W79Y, D81E
notes: FN3 domain
B13: P283FR9P1366_D12 (designed binder)
chain: B1 chain with E32D, I38W, I40L, A41G, F68W, Y72L, W79Q, D81W
notes: FN3 domain
B14: P283FR9P1366_F5 (designed binder)
chain: B1 chain with E32D, A34G, I38W, A41K, F68W, Y72W, W79R, D81E
notes: FN3 domain
B15: P283FR9P1366_G5 (designed binder)
chain: B1 chain with E32Q, I38Y, I40A, A41L, Y72I, W79E, D81F
notes: FN3 domain
B16: P283FR9P1366_F9 (designed binder)
chain: B1 chain with E32H, A34F, I38L, F68W, I70N, Y72S, D78Y, W79E, D81W
notes: FN3 domain
B17: P283FR9P1366_F8 (designed binder)
chain: B1 chain with E32A, P39A, I40K, A41W, D78V, W79H, D81F
notes: FN3 domain
B18: P283GR7P1367_B7 (designed binder)
chain: B1 chain with E32D, I38W, I40T, A41D, I70V, D78H, D81Y
notes: FN3 domain
B19: P283FR9P1366_H10 (designed binder)
chain: B1 chain with E32N, I38W, I40P, A41E, I70V, D78H, W79L
notes: FN3 domain
B20: P283FR9P1366_H8 (designed binder)
chain: LPAPKNLVVSRVTEDSARLSWTAPDAAFDSFYISYPEWPGSGEAIVLTVPGSERSYDLTGLKPGTEYAVFIWCVKGGWLSDPLSAIFTT
notes: FN3 domain
B21: P283FR9P1366_G1 (designed binder)
chain: B20 chain with W38L, G40V, S41E, A68W, F70I, C73G, W78A, L79T, D81E
notes: FN3 domain
B22: P283GR7P1367_B4 (designed binder)
chain: LPAPKNLVVSRVTEDSARLSWTAPDAAFDSFSILYYELPPSGEAIVLTVPGSERSYDLTGLKPGTEYTVSIFGVKGGDNSFPLSAIFTT
notes: FN3 domain
B23: P283FR9P1366_H5 (designed binder)
chain: LPAPKNLVVSRVTEDSARLSWTAPDAAFDSFIYIENKVNGEAIVLTVPGSERSYDLTGLKPGTEYHVTIGGVKGGTESNTLSAIFTT
notes: FN3 domain

Molecular target: T1, cynomolgus monkey CD8 alpha on primary cynomolgus CD8+ T cells (cynomolgus monkey, UniProt P01732 23-235 (human entry))
T1 construct: also called Cyno CD8alpha; cyno CD8A
T1 sequence (P01732 other isoform, or with tags, fused parts or gaps limits assumed): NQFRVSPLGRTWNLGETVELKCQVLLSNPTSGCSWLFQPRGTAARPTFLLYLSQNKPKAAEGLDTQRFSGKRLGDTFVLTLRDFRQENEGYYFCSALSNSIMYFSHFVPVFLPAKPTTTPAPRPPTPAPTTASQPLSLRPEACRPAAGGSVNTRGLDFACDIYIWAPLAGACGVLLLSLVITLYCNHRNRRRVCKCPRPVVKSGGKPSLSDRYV
Experiment: flow cytometry, cyno CD8+ T cells
Procedure: (§1) Binding of the 190 ELISA hits to human and cynomologous monkey primary CD8 T cells was assessed by flow cytometry. The FN3 domain molecules were diluted to 2 μM and 0.2 μM in PBS and incubated with human or cynomologous monkey CD8+ T cells in 96-well format. After 1 hour at 4 C, the cells were washed once with PBS and then resuspended with an anti-FN3 domain antibody (PAB25) solution. Following this incubation, the cells were washed twice with PBS and a PE conjugated secondary antibody and a viability dye were added. Finally, cells were washed and resuspended in PBS for flow cytometric analysis using a BD Canto Instrument. Cells were gating on live cells and median fluorescence intensity of the bound Centyrins (PE channel) was calculated using Cytobank software.

| Binder | Cyno T-cell Binding 0.2 uM (MFI) | Cyno T-cell Binding 2 uM (MFI) |
| --- | --- | --- |
| B1 | 2300 MFI | 28200 MFI |
| B2 | 2880 MFI | 36500 MFI |
| B3 | 864 MFI | 4210 MFI |
| B4 | 3170 MFI | 40800 MFI |
| B5 | 1470 MFI | 14200 MFI |
| B6 | 918 MFI | 6120 MFI |
| B7 | 5550 MFI | 67000 MFI |
| B8 | 1240 MFI | 24400 MFI |
| B9 | 3130 MFI | 37100 MFI |
| B10 | 2050 MFI | 29000 MFI |
| B11 | 19000 MFI | 81500 MFI |
| B12 | 5670 MFI | 66700 MFI |
| B13 | 8140 MFI | 87600 MFI |
| B14 | 4700 MFI | 46400 MFI |
| B15 | 369 MFI | 36400 MFI |
| B16 | 24600 MFI | 84300 MFI |
| B17 | 2270 MFI | 27000 MFI |
| B18 | 3130 MFI | 37500 MFI |
| B19 | 13900 MFI | 75200 MFI |
| B20 | 17100 MFI | 61300 MFI |
| B21 | 4980 MFI | 39800 MFI |
| B22 | 367 MFI | 396 MFI |
| B23 | 477 MFI | 5090 MFI |

Molecular target: T2, human CD8 alpha (CD8A) on primary human CD8+ T cells (human, UniProt P01732 22-235)
T2 construct: whole, on cells; also called hCD8A
T2 sequence (P01732 22-235): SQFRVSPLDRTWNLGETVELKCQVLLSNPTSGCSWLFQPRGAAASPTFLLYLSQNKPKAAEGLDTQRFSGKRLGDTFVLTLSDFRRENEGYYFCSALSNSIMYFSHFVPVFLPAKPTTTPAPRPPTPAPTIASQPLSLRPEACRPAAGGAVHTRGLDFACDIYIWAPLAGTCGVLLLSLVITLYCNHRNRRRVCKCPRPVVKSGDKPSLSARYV
Experiment: flow cytometry, human CD8+ T cells
Procedure: as §1

| Binder | Human T-cell Binding 0.2 uM (MFI) | Human T-cell Binding 2 uM (MFI) |
| --- | --- | --- |
| B1 | 413 MFI | 3390 MFI |
| B2 | 693 MFI | 8570 MFI |
| B3 | 390 MFI | 1620 MFI |
| B4 | 632 MFI | 7670 MFI |
| B5 | 567 MFI | 4590 MFI |
| B6 | 434 MFI | 1710 MFI |
| B7 | 896 MFI | 11000 MFI |
| B8 | 567 MFI | 13800 MFI |
| B9 | 574 MFI | 6860 MFI |
| B10 | 601 MFI | 4560 MFI |
| B11 | 7130 MFI | 43900 MFI |
| B12 | 1030 MFI | 11300 MFI |
| B13 | 1530 MFI | 27800 MFI |
| B14 | 720 MFI | 6880 MFI |
| B15 | 261 MFI | 8450 MFI |
| B16 | 6300 MFI | 33600 MFI |
| B17 | 369 MFI | 3970 MFI |
| B18 | 739 MFI | 10900 MFI |
| B19 | 2410 MFI | 25000 MFI |
| B20 | 4540 MFI | 24900 MFI |
| B21 | 650 MFI | 3600 MFI |
| B22 | 446 MFI | 8300 MFI |
| B23 | 252 MFI | 3140 MFI |

Molecular target: T3, human CD8A-Fc (in house) (human, UniProt P01732 22-182, limits assumed)
T3 construct: captured by goat anti-human Fc on the ProteOn chip; also called hCD8A-Fc; recombinant human CD8 alpha; not shown: linker/tag and Fc of human IgG1
T3 sequence (P01732 22-182 limits assumed): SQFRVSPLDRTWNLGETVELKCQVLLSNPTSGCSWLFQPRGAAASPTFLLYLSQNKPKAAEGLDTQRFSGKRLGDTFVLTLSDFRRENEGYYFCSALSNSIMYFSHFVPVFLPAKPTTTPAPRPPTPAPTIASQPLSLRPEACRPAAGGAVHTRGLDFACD
Experiment: SPR (ProteOn), captured hCD8A-Fc

| Binder | koff |
| --- | --- |
| B1 | 0.00134 s⁻¹ |
| B2 | 0.00198 s⁻¹ |
| B3 | 0.00235 s⁻¹ |
| B4 | 0.00121 s⁻¹ |
| B5 | 0.00141 s⁻¹ |
| B6 | 0.00147 s⁻¹ |
| B7 | 0.00221 s⁻¹ |
| B8 | 0.00177 s⁻¹ |
| B9 | 0.00108 s⁻¹ |
| B10 | 0.00108 s⁻¹ |
| B11 | 0.000205 s⁻¹ |
| B12 | 0.000635 s⁻¹ |
| B13 | 0.00176 s⁻¹ |
| B14 | 0.00104 s⁻¹ |
| B15 | 0.000705 s⁻¹ |
| B16 | 0.000494 s⁻¹ |
| B17 | 0.00403 s⁻¹ |
| B18 | 0.00127 s⁻¹ |
| B19 | 0.00063 s⁻¹ |
| B20 | 0.000175 s⁻¹ |
| B21 | 0.000872 s⁻¹ |
| B22 | 0.00518 s⁻¹ |
| B23 | 0.00318 s⁻¹ |
